Reference: publication doi:10.1101/2023.05.16.540868 (bioRxiv, 2023)
Residue numbers refer to the chain shown, from its start. Names and notes keep the numbering of the source. Read-outs that look alike come from different tables or passages of the source.

B1: SPD-5(541-677) (domain or fragment, C. elegans, UniProt P91349 541-677, looked up)
chain: SQSHIPILHDMQQILDSSAMFLEGQHDVAVNVEQMQEKMSQIREALARLFERLKSSAALFEEILERMGSSDPNADKIKKMKLAFETSINDKLNVSAILEAAEKDLHNMSLNFSILEKSIVSQAAEASRRFTIAPDAE
B2: SPD-5(541-677) phosphorylated by PLK-1(CA) (domain or fragment, C. elegans, UniProt P91349 541-677, looked up)
chain: B1 chain
modifications: phosphorylated by PLK-1(CA) (verified by gel migration shift and MS); sites not printed for this fragment
B3: SPD-5(541-677) R592K (domain or fragment, C. elegans, UniProt P91349 541-677, looked up)
chain: B1 chain with R52K

Columns and labels:
mass photometry [1] = molecular target: the molecule itself; test: mass photometry
mass photometry [2] = molecular target: the molecule itself; test: mass photometry; remark: listed apart in the source

Protein	stoichiometry N (mass photometry [1])	stoichiometry N (mass photometry [2])
B1	2	
B2		2
B3	2	
